This is an account of results in article doi:10.1101/2020.12.01.405779.

In one experiment the target is FUL2 (wheat). The experiment in a line: two-hybrid.
A further experiment addresses FUL3 (wheat). The experiment in a line: two-hybrid.

In the experiment with FUL2 (wheat), “VRT2 (Bridge protein of the yeast three-hybrid assay) (natural protein)” gave a percent reduction of the α-gal activity of the FUL2 - SEP1-2 interaction of 12%, a percent reduction of the α-gal activity of the FUL2 - SEP1-4 interaction of 20.6% and a percent reduction of the α-gal activity of the FUL2 - SEP1-6 interaction of 22%. In the experiment with FUL3 (wheat), this substance had a percent reduction of the α-gal activity of the FUL3 - SEP1-2 interaction of 93.8%.
